Results on four molecules are retold here after patent US20240084003A1 (SIMCERE ZAIMING PHARMACEUTICAL, published 2024).

To fix the notation:
T1: monkey CD22 protein (ACROBiosystems, catalog number SI2-R52Ha) (monkey, UniProt F6W485 20-688)
T1 construct: commercial protein; also called monkey CD22-ECD; monkey CD22-ECD-His
T1 sequence: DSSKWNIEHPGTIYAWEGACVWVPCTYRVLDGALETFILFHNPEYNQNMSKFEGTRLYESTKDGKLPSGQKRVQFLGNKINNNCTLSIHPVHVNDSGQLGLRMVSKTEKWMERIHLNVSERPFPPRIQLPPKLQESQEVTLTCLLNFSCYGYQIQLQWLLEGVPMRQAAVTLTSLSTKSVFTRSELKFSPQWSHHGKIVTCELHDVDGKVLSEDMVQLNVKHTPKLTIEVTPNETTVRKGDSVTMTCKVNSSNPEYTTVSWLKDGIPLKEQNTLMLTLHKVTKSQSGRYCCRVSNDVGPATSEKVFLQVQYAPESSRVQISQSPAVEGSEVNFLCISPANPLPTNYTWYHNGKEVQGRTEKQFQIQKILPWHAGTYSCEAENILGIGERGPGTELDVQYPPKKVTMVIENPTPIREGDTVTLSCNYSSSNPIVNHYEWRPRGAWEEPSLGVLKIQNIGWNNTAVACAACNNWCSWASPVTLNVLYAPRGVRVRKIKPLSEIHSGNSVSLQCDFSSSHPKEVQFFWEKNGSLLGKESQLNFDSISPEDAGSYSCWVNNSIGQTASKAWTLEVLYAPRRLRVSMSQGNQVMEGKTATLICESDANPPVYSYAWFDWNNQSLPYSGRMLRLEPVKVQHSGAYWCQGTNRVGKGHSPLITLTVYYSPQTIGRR

B1: F2.55.1 (antibody, human IgG1, lambda, V domains shown)
VH: QVTLKESGPGILQPSQTLSLTCSFSGFSLSTFPLGVGWIRQPSGKGLEWLAHVWWNDDDYYNPALKSRLTISKDTSNTRVFLSVASVDTAETATYYCARLNWDRWYFDVWGTGTTVTVSS
VL: QLVLTQSSSASFSLGASAKLTCTLSSQHSAYTVEWYQQQPLKPPKYVMELKKDGSHSTGDGIPDRFSGSSSGADRYLSISNIQPEDEAIYICGVGDTVKEQFVFGGGTKVTVLG
notes: human-murine chimeric IgG1 lambda; VL name legible
B2: HA22-hIgG1 (antibody, V domains shown)
VH: EVQLVESGGGLVKPGGSLKLSCAASGFAFSIYDMSWVRQTPEKCLEWVAYISSGGGTTYYPDTVKGRFTISRDNAKNTLYLQMSSLKSEDTAMYYCARHSGYGTHWGVLFAYWGQGTLVTVSA
VL: DIQMTQTTSSLSASLGDRVTISCRASQDISNYLNWYQQKPDGTVKLLIYYTSILHSGVPSRFSGSGSGTDYSLTISNLEQEDFATYFCQQGNTLPWTFGCGTKLEIKR
B3: F2.205.9 (antibody, human IgG1, lambda, V domains shown)
VH: QVTLKESGPGILQPSQTLSLTCSFSGFSLSTSGMGVGWIRQPSGKGLEWLAHIWWDDDEYYNPALKSRLTISKDTSKNQVFLKIANVDTADTATYYCARISIPYGYYDWFFDVWGTGTTVTVSA
VL: QAVVTQESALTTSPGETVTLTCRSSTGAVTTRNYANWVQEKPDHLFTGLIGGTNNRAPGVPARFSGSLIGDKAALTITGAQTEDEAIYFCALWYSNHFIFGSGTKVTVLG
notes: as for B1
B4: F2.151.13 (antibody, human IgG1, lambda, V domains shown)
VH: QVHLQQPGTELMKPGASVKLSCKATGYTFRDYWLEWVKQRPGHGLEWIGEILPGSGNAYYNEKFKGKATFTADTSSNTAYMQLSSLTTEDSAIYYCARVYSNWYFDAWGKGTTVTVSS
VL: B3 VL with R32S, R56Q, T78S, Y94F, F98W, I99V, S102G, V106L
notes: human-murine chimeric IgG1 lambda

Positions count from the first letter of the chain named.

The first assay deals with T1, monkey CD22 protein (ACROBiosystems, …). Briefly: ELISA, coated monkey CD22 protein, antibody 10 nM. In short, it runs like this:
(§1)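 First, CD22 (2 μg/mL, PBS) was coated at 4° C overnight. Second, wells were blocked with PBS containing 2% BSA for 2 h at room temperature. Third, antibody and then HRP secondary were each incubated 2 h at 37° C. Finally, TMB colour was stopped with HCl.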
Molecule B1 came in with an OD450 of 2 OD450.
In the case of B2, the OD450 came out at 2.41 OD450.
For the molecule B3, the OD450 stood at 2.28 OD450.
The same measure, in the same setting: the result for B4 reads 1.89 OD450.

The target is the same in another assay. Briefly: ELISA, coated monkey CD22 protein, antibody 0.1 nM. The essentials:
as §1
Molecule B1 yielded an OD450 of 1.73 OD450.
Take B2: the OD450 was determined as 2.24 OD450.
On the same count and under the same terms, in the case of B3 it was 2.21 OD450; in that of B4, 1.6 OD450.

For a further assay the target is unchanged. Kind of assay: ELISA, coated monkey CD22 protein, antibody 100 nM. The essentials: as §1
A general note: An ELISA detects its analyte on a solid surface through an enzyme-linked reagent.
As to B1, the OD450 is 1.91 OD450.
Same read-out and setting: in the case of B2 it was 2.2 OD450.
On the same count and under the same terms, in the case of B3 it was 2.33 OD450; in that of B4, 2.77 OD450.

A further assay has the same target. Briefly: ELISA, coated monkey CD22 protein, antibody 0.01 nM. In short, it runs like this:
as §1
In the case of B1, the OD450 came to 0.85 OD450.
The same measure, in the same setting: in the case of B2 it was 1.54 OD450.
On the same count and under the same terms, the result for B3 reads 1.78 OD450; that for B4, 0.94 OD450.

A further assay concerns the target T2, CD22 on cynomolgus monkey peripheral blood B cells (cynomolgus monkey (Macaca fascicularis)).
T2 construct: whole, on cells; also called cynomolgus monkey B cells
Briefly: FACS, cynomolgus PBMC, CD20+ B cells, antibody 1 nM. The essentials: (§2)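 PBMC from cynomolgus blood, Ficoll separation. Indirect staining: chimeric Ab + BV605 anti-CD20 1 h RT, then APC anti-hIgG Fc 30 min RT in dark. Gated CD20+; % Ab+ cells reported.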
A general note: In flow cytometry, cells or beads pass a laser one at a time.
For the molecule B1, the “Proportion of chimeric antibody positive cells to B cells (%)” value (“Proportion … (%)” for short) is 22%.
Take B2: the “Proportion … (%)” value turned out to be 33%.
B3: the “Proportion … (%)” value came out at 40%.
The same measure, in the same setting: in the case of B4 it was 38%.

The next assay has as its target T1, monkey CD22 protein (ACROBiosystems, …). Kind of assay: ELISA, coated monkey CD22 protein, antibody 0.001 nM. In short, it runs like this:
as §1
As for B1, the OD450 stood at 0.18 OD450.
Take B2: the OD450 came out at 0.47 OD450.
In the case of B3, the OD450 is 0.63 OD450.
On the same count and under the same terms, in the case of B4 it was 0.27 OD450.

A further assay concerns the target T2, CD22 on cynomolgus monkey peripheral …. Kind of assay: FACS, cynomolgus PBMC, CD20+ B cells, antibody 10 nM. In short, it runs like this: as §2
For B1, the “Proportion … (%)” value was determined as 28%.
The same measure, in the same setting: in the case of B2 it was 89%; in that of B3, 41%.
Still for that read-out and setting: in the case of B4 it was 48%.

Another assay addresses T1, monkey CD22 protein (ACROBiosystems, …). Briefly: ELISA, coated monkey CD22 protein, antibody 0.0001 nM. The essentials:
as §1
Molecule B1 displayed an OD450 of 0.07 OD450.
Same read-out and setting: in the case of B2 it was 0.14 OD450.
In turn, B3 displayed an OD450 of 0.16 OD450.
With B4, the OD450 was 0.1 OD450.

The next assay addresses T2, CD22 on cynomolgus monkey peripheral …. Kind of assay: FACS, cynomolgus PBMC, CD20+ B cells, antibody 100 nM. In short, it runs like this: as §2
Regarding B1, the “Proportion … (%)” value is 66%.
Regarding B2, the “Proportion … (%)” value came to 93%.
Regarding B3, the “Proportion … (%)” value is 46%.
The same measure, in the same setting: the result for B4 reads 60%.

A further assay has as its target T1, monkey CD22 protein (ACROBiosystems, …). Kind of assay: ELISA, coated monkey CD22 protein, antibody 0.00001 nM. In short, it runs like this: as §1
For the molecule B1, the OD450 came out at 0.06 OD450.
Same read-out and setting: in the case of B2 it was 0.08 OD450; in that of B3, 0.08 OD450; in that of B4, 0.07 OD450.
